{"source": "patent US20100310646A1", "about": "(AARHUS UNIVERSITET, published 2010)", "key": {"[1]": {"biological_target": "T1, PA 1-599 (fragment of human PAPP-A, residues 1-599) (human, UniProt Q13219 82-679)", "T1 sequence": "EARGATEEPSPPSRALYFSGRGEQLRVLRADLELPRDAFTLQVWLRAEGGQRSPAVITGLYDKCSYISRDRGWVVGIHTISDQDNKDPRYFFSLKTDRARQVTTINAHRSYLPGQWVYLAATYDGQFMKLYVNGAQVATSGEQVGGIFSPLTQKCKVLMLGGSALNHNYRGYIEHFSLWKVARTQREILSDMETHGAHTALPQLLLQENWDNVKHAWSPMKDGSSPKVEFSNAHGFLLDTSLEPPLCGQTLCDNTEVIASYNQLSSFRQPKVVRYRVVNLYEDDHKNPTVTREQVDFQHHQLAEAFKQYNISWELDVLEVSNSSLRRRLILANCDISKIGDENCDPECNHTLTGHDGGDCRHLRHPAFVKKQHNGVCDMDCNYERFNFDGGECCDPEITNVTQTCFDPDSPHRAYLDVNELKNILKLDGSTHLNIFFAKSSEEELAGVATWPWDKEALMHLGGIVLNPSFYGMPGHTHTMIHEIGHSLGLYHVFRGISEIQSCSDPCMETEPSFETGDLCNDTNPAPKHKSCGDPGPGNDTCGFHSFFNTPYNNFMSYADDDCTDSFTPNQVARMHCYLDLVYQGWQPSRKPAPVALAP", "assay": "binding of PAC5 to fragments of human PAPP-A"}, "[2]": {"biological_target": "T2, PA 937-1547 (fragment of human PAPP-A, residues 937-1547) (human, UniProt Q13219 1017-1627)", "T2 sequence": "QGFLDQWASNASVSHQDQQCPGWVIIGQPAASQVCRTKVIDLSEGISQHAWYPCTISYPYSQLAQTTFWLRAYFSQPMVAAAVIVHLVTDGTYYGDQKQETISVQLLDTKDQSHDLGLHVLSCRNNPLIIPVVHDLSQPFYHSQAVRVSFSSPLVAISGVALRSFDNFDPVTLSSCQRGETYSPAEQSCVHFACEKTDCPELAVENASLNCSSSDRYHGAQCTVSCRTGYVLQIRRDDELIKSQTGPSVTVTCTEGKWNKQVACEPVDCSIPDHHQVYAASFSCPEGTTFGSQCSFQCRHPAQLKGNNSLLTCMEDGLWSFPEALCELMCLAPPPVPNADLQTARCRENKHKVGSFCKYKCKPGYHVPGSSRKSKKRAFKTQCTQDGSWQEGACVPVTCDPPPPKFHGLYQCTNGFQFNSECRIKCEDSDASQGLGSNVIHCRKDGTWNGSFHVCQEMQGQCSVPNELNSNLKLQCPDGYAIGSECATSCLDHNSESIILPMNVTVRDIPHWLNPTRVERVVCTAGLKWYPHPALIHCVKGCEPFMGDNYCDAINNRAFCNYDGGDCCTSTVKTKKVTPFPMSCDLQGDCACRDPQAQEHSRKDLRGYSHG", "assay": "binding of PAC5 to fragments of human PAPP-A"}, "[3]": {"biological_target": "T3, PA 1-950 (fragment of human PAPP-A, residues 1-950) (human, UniProt Q13219 82-1030)", "T3 sequence": "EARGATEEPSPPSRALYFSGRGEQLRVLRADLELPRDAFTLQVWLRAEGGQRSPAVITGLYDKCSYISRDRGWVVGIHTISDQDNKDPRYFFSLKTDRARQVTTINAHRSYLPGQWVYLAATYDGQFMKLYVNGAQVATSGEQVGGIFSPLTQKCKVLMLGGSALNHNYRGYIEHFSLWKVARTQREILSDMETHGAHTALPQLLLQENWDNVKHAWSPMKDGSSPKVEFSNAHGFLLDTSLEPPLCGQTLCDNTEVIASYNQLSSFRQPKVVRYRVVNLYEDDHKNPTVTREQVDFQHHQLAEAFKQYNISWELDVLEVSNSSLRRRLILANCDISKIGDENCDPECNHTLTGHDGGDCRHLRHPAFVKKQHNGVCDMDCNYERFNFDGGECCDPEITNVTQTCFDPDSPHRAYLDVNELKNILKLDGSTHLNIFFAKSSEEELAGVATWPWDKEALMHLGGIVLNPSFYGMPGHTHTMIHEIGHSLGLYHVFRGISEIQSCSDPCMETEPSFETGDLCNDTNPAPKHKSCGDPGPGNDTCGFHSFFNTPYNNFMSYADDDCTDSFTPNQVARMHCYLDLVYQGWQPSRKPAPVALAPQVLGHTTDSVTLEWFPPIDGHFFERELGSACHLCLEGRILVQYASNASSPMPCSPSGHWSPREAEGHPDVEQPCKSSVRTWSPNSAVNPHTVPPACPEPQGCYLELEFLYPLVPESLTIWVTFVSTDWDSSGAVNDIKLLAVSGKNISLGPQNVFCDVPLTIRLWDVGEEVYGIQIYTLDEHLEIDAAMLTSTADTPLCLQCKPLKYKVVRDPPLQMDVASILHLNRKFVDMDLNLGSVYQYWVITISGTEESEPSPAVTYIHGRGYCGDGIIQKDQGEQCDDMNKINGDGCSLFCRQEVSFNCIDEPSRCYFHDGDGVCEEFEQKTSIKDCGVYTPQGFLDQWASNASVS", "assay": "binding of PAC5 to fragments of human PAPP-A"}, "human PAPP-A(D1502A)": {"biological_target": "human PAPP-A(D1502A) (human, UniProt Q13219 82-1627)", "assay": "ELISA, PAPP-A mutant captured with polyclonal PAPP-A antibodies", "method": "(§1) A, PAC1 binding to human PAPP-A/PAPP-A2 chimeras or truncated human PAPP-A variants analyzed by ELISA. Sequence derived from PAPP-A is shown by open bars, and absence of binding (−) or binding (+) is indicated. […] Samples with or without EDTA (10 mM) were injected (120 s) followed by dissociation (180 s) (solid lines). […] The absence of binding (−) or binding (+) is indicated. PAC5, which was used as a positive control, binds to an epitope of PAPP-A located N-terminal to CCP1.\n(§2) Determination of antibody specificity and mapping of antibody binding—Mapping of antibody binding was carried out by ELISA using PAPP-A/PAPP-A2 chimeric proteins, and mutated variants of PAPP-A. The proteins were immobilized with polyclonal PAPP-A antibodies, and binding of phage antibodies were analyzed as detailed above."}, "human PAPP-A(D1484A)": {"biological_target": "human PAPP-A(D1484A) (human, UniProt Q13219 82-1627)", "assay": "ELISA, PAPP-A mutant captured with polyclonal PAPP-A antibodies", "method": "as §1, §2"}, "human PAPP-A(D1499A)": {"biological_target": "human PAPP-A(D1499A) (human, UniProt Q13219 82-1627)", "assay": "ELISA, PAPP-A mutant captured with polyclonal PAPP-A antibodies", "method": "as §1, §2"}, "[4]": {"biological_target": "T4, human pregnancy-associated plasma protein-A (PAPP-A) (human, UniProt Q13219 82-1627)", "T4 construct": "Recombinant, from 293T cells; also called human PAPP-A; full-length PAPP-A", "assay": "ELISA"}}}
{"binder": "PAC5 (PAPP-A non-exosite antibody, scFv) (scFv, Obtained by screening on full-length human PAPP-A and used as a control antibody in the scFv format; also called clone PAC5) scFv: EVQLLESGGGLVQPGGSLRLSCAASGFTFSSYAMSWVRQAPGKGLEWVSAISPAGVMTQYADSVKGRFTISRDNSKNTLYLQMNSLRAEDTAVYYCAKQQGGFDYWGQGTLVTVSSGGGGSGGGGSGGGGSTDIQMTQSPSSLSASVGDRVTITCRASQSISSYLNWYQQKPGKAPKLLIYRASALQSGVPSRFSGSGSGTDFTLTISSLQPEDFATYYCQQPIARPPTFGQGTKVEIKRAAAHHHHHHGAAEQKLISEEDLNGAA", "values": [{"measurement": "binding result", "setting": "[1]", "result": "no binding"}, {"measurement": "binding result", "setting": "[2]", "result": "no binding"}, {"measurement": "binding result", "setting": "[3]", "result": "binds"}, {"measurement": "binding result", "setting": "human PAPP-A(D1502A)", "result": "binds"}, {"measurement": "binding result", "setting": "human PAPP-A(D1484A)", "result": "binds"}, {"measurement": "binding result", "setting": "human PAPP-A(D1499A)", "result": "binds"}, {"measurement": "binding result", "setting": "[4]", "result": "binds"}]}
